Results reported in patent US20140065645.

Target: T1, FITC-labeled polypeptide linker, coupled to a bead
T1 chain: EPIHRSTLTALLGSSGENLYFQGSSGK

B1: Tobacco etch virus (TEV) protease (protein)
chain: GESLFKGPRDYNPISSTICHLTNESDGHTTSLYGIGFGPFIITNKHLFRRNNGTLLVQSLHGVFKVKNTTTLQQHLIDGRDMIIIRMPKDFPPFPQKLKFREPQREERICLVTTNFQTKSMSSMVSDTSCTFPSSDGIFWKHWIQTKDGQCGSPLVSTRDGFIVGIHSASNFTNTNNYFTSVPKNFMELLTNQEAQQWVSGWRLNADSVLWGGHKVFMSKPEEPFQPVKEATQLMNELVYSQ
In the case of B1, the Intensity of Signal (FITC fluorescence of the linker-bead complex after 1 hour with TEV protease, 1:1 by mass) is reported as 10.3, the Intensity of Signal (FITC fluorescence of the linker-bead complex after 1 hour with TEV protease, 1:2 by mass) is reported as 9 and the Ratio of Signal/Background Signal (1:1 TEV protease) is reported as 1.24. The Ratio of Signal/Background Signal (1:2 TEV protease) was 1.08 and the “cleavage of the polypeptide linker” value was “Most polypeptide linkers were cleaved when the mass of the added enzyme was twice the mass of the polypeptide linker”.
